Test results taken from patent US20090031441A1 (NATIONAL UNIVERSITY CORPORATION NAGOYA UNIVERSITY, published 2009).

What was measured:
[1] = target: T1, RGL1 (Arabidopsis DELLA protein), yeast two-hybrid prey in pGADT7 AD vector (Arabidopsis, UniProt Q9C8Y3 1-511); assay: yeast two-hybrid system
T1 construct: also called AtDELLA
T1 sequence (looked up): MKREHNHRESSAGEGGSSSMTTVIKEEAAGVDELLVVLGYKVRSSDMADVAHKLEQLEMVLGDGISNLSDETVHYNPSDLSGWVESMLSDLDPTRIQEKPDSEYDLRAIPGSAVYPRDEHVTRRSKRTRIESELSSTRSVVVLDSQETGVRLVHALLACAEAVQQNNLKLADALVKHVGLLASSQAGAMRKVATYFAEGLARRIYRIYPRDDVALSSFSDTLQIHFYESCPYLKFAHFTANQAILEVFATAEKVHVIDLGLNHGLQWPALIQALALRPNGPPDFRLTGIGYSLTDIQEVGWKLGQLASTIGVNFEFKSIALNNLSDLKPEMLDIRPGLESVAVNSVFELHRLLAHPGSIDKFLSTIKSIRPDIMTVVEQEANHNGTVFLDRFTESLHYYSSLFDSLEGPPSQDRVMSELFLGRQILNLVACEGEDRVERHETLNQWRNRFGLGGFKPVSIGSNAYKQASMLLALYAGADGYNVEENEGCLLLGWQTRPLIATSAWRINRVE
Method: (§1) Arabidopsis has five DELLA proteins (RGA, GAI, RGL1, RGL2, and RGL3; collectively designated AtDELLA; Fleet, C. M., and Sun, T.-P. (2005) Curr. Opin. Plant Biol., 8, 77-85; Dill, A., and Sun, T. (2001) Genetics, 159, 777-785); therefore, there are 15 possible combinations of GID1/DELLA proteins. To verify the positive interactions between AtGID1-AtDELLA, two experiments were conducted using the yeast two hybrid (Y2H) system. In the first experiment (Assay A), a viable colony assay using a defined medium in which only positive clones would survive was carried out. In the second experiment (Assay B), β-galactosidase activity was measured, as reporter gene product of AtGID1-AtDELLA interactions.
BD Matchmaker Two-hybrid System 3 (Clontech, Palo Alto, Calif., USA; now part of Takara Bio) was used in the Y2H experiments. After confirming the PCR products of the AtGID1 genes by sequencing, PCR products were cloned into pGBKT7 DNA-BD shuttle vector to construct bait plasmids. Likewise, the entire coding region of each AtDELLA gene (GAI including EcoRI and XhoI sites; RGA including BamHI and XhoI sites; RGL1 including SmaI and SacI sites; RGL2 including SmaI and ClaI sites; RGL3 including SmaI and XhoI sites on the ends) was cloned into pGADT7 AD vector. The S. cerevisiae AH109 (MATa) strain or Y187 (MATα) strain was used, and DNA-BD and AD vector cassettes were used as negative controls. The details of the method used for the yeast assay are as described in the manufacturer's instructions (Yeast Protocols Handbook #PT3024-1; http://www.clontech.com/). Experiments were carried out four times independently. Similar results were obtained each time.

[2] = target: T2, RGA (Arabidopsis DELLA protein), yeast two-hybrid prey in pGADT7 AD vector (Arabidopsis, UniProt Q9SLH3 1-587); assay: yeast two-hybrid Assay B (beta-galactosidase), GA4 dose response 10^-5 to 10^-9 M
T2 construct: also called AtDELLA
T2 sequence (looked up): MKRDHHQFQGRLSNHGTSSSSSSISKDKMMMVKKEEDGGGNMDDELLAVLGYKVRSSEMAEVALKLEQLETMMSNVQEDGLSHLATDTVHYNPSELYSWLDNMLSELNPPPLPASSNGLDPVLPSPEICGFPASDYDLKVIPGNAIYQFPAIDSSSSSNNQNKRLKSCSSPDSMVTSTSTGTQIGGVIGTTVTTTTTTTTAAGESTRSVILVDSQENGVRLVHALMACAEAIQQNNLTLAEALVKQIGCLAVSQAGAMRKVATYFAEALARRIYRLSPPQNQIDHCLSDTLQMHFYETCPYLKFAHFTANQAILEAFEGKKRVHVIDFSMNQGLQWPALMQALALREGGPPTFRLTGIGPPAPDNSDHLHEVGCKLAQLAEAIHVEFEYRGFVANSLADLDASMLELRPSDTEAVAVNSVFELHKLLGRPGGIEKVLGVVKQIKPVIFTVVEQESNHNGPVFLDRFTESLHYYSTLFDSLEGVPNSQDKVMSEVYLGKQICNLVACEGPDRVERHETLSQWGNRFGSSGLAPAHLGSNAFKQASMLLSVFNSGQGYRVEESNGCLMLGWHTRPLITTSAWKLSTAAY
Method: Each AtGID1 was used as a bait while AtDELLA was a prey. GA₄ (10⁻⁵ M) was added to the medium. The bars indicates β-galactosidase activity when o-nitrophenol-β-D-galactopyranoside was used as a substrate (Assay B). The growth of each transformant in the defined medium for 2 days (Assay A) is shown beneath of each bar graph. The experiment was carried out in quadruplicate. The SD value shown in the figure was determined from three measurements. Panel B) depicts the dose response in AtGID1-RGA interaction in Assay B of Y2H. GA₄ (10⁻⁵ to 10⁻⁹ M) was added to the medium. The experiment was conducted in duplicates. The SD value shown in the figure was determined from three measurements. Panel C) depicts the results of an evaluation of the in vitro GA-binding potency of AtGID1 using AtDELLA. Left panel, 15 minutes after mixing AtGID1c (C), tritiated GA, with an excess amount of non-labeled GA (+) or without non-labeled GA (−). GAI (G) or RGA (R) was added, and then the GA-binding activity in each reaction mixture was measured according to the standard method. Recombinant protein originating from the vector (v) was used as a negative control. The experiment was carried out in duplicates. The SD value was determined from three measurements. Right panel, a profile of Western blotting for recombinant AtDELLA using an antibody to His tag. G, GAI; R, RGA; v, vector; M, molecular weight marker. […]

[3] = target: T1, RGL1 (Arabidopsis DELLA protein), yeast …; assay: yeast two-hybrid without GA (FIG. 11); member RGL1 named in the legend of FIG. 11
Method: as §1
BD Matchmaker Two-hybrid System 3 (Clontech, Palo Alto, Calif., USA; now part of Takara Bio) was used in the Y2H experiments. After confirming the PCR products of the AtGID1 genes by sequencing, PCR products were cloned into pGBKT7 DNA-BD shuttle vector to construct bait plasmids. […]
Thus, GA₄ (10⁻⁵ M) was used and added to the medium. […] As described above, all AtGID1-AtDELLA interactions were detected in a GA-dependent manner; however, interactions between AtGID1b and some AtDELLAs were detected, albeit weakly, in the absence of GA (FIG. 11).

B1: AtGID1a (At3g05120), yeast two-hybrid bait in pGBKT7 DNA-BD vector (receptor, not shown: small tags and cut ends)
chain: MAASDEVNLIESRTVVPLNTWVLISNFKVAYNILRRPDGTFNRHLAEYLDRKVTANANPVDGVFSFDVLIDRRINLLSRVYRPAYADQEQPPSILDLEKPVDGDIVPVILFFHGGSFAHSSANSAIYDTLCRRLVGLCKCVVVSVNYRRAPENPYPCAYDDGWIALNWVNSRSWLKSKKDSKVHIFLAGDSSGGNIAHNVALRAGESGIDVLGNILLNPMFGGNERTESEKSLDGKYFVTVRDRDWYWKAFLPEGEDREHPACNPFSPRGKSLEGVSFPKSLVVVAGLDLIRDWQLAYAEGLKKAGQEVKLMHLEKATVGFYLLPNNNHFHNVMDEISAFVNAEC
notes: Bait fusion for the Y2H assays (BD Matchmaker Two-hybrid System 3); also called Arabidopsis GID1
**Q.** Does B1 bind [1]?
**A.** Result: binds

B2: AtGID1b (At3g63010), yeast two-hybrid bait in pGBKT7 DNA-BD vector (receptor, not shown: small tags and cut ends)
chain: MAGGNEVNLNECKRIVPLNTWVLISNFKLAYKVLRRPDGSFNRDLAEFLDRKVPANSFPLDGVFSFDHVDSTTNLLTRIYQPASLLHQTRHGTLELTKPLSTTEIVPVLIFFHGGSFTHSSANSAIYDTFCRRLVTICGVVVVSVDYRRSPEHRYPCAYDDGWNALNWVKSRVWLQSGKDSNVYVYLAGDSSGGNIAHNVAVRATNEGVKVLGNILLHPMFGGQERTQSEKTLDGKYFVTIQDRDWYWRAYLPEGEDRDHPACNPFGPRGQSLKGVNFPKSLVVVAGLDLVQDWQLAYVDGLKKTGLEVNLLYLKQATIGFYFLPNNDHFHCLMEELNKFVHSIEDSQSKSSPVLLTP
notes: Bait fusion for the Y2H assays; also called Arabidopsis GID1
**Q.** Does B2 bind [2]?
**A.** Result: binds

**Q.** Does B2 bind [3]?
**A.** Result: binds
